The target of this data set is T1, cPPR-Telo1 (synthetic construct).
T1 chain: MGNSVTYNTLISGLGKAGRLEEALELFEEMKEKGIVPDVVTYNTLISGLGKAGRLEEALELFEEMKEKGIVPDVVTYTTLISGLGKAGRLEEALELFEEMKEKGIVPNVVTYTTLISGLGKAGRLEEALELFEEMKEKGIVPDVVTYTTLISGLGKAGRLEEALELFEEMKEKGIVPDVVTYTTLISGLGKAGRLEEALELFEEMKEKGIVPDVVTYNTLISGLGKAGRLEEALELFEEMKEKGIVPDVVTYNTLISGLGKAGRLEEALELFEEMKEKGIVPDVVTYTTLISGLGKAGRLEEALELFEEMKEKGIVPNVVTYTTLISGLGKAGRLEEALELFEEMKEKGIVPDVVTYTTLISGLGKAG
Put plainly: structure; co-crystal structure 2.0 A, PDB 5ORQ; protein/DNA 1:2; 100 mM sodium acetate pH 4.6, 20 mM CaCl2, 22% MPD. Particulars: tags: GST and His tags (pETM30, E. coli). The procedure: Crystals of cPPR-Telo1 were grown at 23° C. by the sitting drop vapour diffusion method by mixing 1 μl protein (5 mg/ml) with an equal volume of reservoir solution (100 mM sodium acetate pH 4.6, 20 mM calcium chloride, and 40% MPD). In addition, cPPR-Telo1 was incubated with target ssDNA oligonucleotide (TTAGGGTTAG) at a protein/DNA molar ratio of 1:2 for 30 min at 4° C. and crystallized in 100 mM sodium acetate pH 4.6, 20 mM calcium chloride, and 22% MPD. For both cPPR-Telo1 and cPPR-Telo1/ssDNA a single-wavelength anomalous dispersion dataset was collected at the K-edge of selenium at beam line ID30A-3 (ESRF, Grenoble, France). […] Acta Crystallogr D Biol Crystallogr 66, 213-21 (2010) was used as a starting model for manual building in COOT (Emsley, P. & Cowtan, K. Coot: model-building tools for molecular graphics. Acta Crystallogr D Biol Crystallogr 60, 2126-32 (2004) interspersed with refinement in Buster (version 2.10.3) (Smart, O. S. et al. Exploiting structure similarity in refinement: automated NCS and target-structure restraints in BUSTER. Acta Crystallogr D Biol Crystallogr 68, 368-80 (2012), which rendered a final model (Table 1) that had no Ramachandran outliers as assessed by MOLPROBITY (Lovell, S. C. et al. Structure validation by Calpha geometry: phi,psi and Cbeta deviation. […]

The source of these data is patent US20230287060, “PROTEINS AND THEIR USE FOR NUCLEOTIDE BINDING” (The University of Western Australia, published 2023).

B1: telomeric ssDNA target 10-mer (ssDNA)
DNA: TTAGGGTTAG
As for B1, the binding result is given as “binds”.
